Test results as given in IntAct's records for PubMed 20498073.

Molecular target: expa_drome ex (UniProt Q07436)
Sequence of UniProt Q07436 (Q07436 whole entry): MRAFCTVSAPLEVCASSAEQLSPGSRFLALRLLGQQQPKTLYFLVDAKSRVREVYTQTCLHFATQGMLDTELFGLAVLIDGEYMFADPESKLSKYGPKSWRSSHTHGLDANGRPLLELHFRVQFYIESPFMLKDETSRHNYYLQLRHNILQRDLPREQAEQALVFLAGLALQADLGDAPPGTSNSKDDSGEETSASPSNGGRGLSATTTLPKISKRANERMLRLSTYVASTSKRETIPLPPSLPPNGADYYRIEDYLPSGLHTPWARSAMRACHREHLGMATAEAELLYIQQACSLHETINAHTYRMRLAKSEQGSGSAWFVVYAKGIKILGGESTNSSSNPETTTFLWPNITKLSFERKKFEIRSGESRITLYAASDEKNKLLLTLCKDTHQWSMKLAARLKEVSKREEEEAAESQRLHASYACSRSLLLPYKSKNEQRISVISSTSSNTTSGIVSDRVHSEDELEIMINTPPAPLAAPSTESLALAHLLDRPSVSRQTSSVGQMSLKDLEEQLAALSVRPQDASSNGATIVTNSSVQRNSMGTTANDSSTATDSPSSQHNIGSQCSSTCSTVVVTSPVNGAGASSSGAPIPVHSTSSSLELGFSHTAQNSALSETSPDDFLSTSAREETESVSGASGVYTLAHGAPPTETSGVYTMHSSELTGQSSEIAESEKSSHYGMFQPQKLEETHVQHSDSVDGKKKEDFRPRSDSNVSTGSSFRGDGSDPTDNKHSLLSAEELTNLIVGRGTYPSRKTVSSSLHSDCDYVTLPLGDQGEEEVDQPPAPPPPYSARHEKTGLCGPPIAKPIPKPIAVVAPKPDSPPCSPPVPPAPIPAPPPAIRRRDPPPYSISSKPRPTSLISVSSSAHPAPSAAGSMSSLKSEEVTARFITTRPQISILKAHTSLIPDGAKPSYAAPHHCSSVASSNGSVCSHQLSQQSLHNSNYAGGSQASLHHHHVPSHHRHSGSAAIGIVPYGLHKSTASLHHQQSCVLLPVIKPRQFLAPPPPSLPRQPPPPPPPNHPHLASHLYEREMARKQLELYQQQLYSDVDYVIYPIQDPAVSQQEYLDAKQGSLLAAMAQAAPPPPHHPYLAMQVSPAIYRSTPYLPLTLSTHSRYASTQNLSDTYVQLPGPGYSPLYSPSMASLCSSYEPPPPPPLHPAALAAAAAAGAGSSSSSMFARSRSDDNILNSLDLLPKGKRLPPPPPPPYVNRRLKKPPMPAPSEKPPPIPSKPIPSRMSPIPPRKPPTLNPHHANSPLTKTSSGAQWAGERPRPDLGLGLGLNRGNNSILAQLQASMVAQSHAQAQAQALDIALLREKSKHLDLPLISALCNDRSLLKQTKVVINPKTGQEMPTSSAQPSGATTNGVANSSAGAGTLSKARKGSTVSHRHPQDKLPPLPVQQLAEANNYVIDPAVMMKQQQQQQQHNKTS

effect of a mutation on the interaction: disrupting interaction
Substance: Protein crumbs (Drosophila melanogaster (Fruit fly)), P10040 Y2119A;P2121A;E2125A
